Tested on: T1, piggyBac transposase (Trichoplusia ni)
T1 sequence: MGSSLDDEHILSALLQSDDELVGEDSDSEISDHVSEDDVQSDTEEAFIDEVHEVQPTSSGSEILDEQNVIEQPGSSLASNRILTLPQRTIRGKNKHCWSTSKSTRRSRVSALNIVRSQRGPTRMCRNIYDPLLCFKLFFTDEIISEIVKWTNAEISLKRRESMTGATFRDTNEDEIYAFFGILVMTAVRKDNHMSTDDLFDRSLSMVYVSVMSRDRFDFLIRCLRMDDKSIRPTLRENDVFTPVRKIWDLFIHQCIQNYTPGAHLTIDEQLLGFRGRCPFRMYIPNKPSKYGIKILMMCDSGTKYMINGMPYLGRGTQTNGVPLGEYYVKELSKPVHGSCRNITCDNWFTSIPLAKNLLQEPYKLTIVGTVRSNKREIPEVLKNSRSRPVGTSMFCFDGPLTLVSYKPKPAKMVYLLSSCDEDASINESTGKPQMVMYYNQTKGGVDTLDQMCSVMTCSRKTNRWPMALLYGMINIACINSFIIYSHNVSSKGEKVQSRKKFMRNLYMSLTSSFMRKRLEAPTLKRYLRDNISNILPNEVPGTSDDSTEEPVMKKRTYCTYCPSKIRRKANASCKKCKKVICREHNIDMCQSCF
Experiment: cell_activity
Conditions: RFP+ HEK-293 at 28 days

For “CCCTAGAAAGATAGTCTGCGTAAAATTGACGCATGCATGCGTCAATTTTACGCATGATTATCTTTAACGTACGTCACAATATGATTATCTTTCTAGGG (double strand)”, the activity was 0.72%.
